The record followed here is IntAct's records for PubMed 31515488.

B1: STAM-binding protein (Homo sapiens), O95630 (parent)
chain: MSDHGDVSLPPEDRVRALSQLGSAVEVNEDIPPRRYFRSGVEIIRMASIYSEEGNIEHAFILYNKYITLFIEKLPKHRDYKSAVIPEKKDTVKKLKEIAFPKAEELKAELLKRYTKEYTEYNEEKKKEAEELARNMAIQQELEKEKQRVAQQKQQQLEQEQFHAFEEMIRNQELEKERLKIVQEFGKVDPGLGGPLVPDLEKPSLDVFPTLTVSSIQPSDCHTTVRPAKPPVVDRSLKPGALSNSESIPTIDGLRHVVVPGRLCPQFLQLASANTARGVETCGILCGKLMRNEFTITHVLIPKQSAGSDYCNTENEEELFLIQDQQGLITLGWIHTHPTQTAFLSSVDLHTHCSYQMMLPESVAIVCSPKFQETGFFKLTDHGLEEISSCRQKGFHPHSKDPPLFCSCSHVTVVDRAVTITDLR
partner: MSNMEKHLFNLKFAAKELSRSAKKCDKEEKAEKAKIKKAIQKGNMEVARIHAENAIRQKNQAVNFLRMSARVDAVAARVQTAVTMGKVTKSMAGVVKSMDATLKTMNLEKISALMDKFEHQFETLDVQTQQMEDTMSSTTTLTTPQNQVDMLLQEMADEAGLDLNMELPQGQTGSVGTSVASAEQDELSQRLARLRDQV
B2: Golgin-45 (Homo sapiens), Q9H2G9 (parent)
chain: MTTKNLETKVTVTSSPIRGAGDGMETEEPPKSVEVTSGVQSRKHHSLQSPWKKAVPSESPGVLQLGKMLTEKAMEVKAVRILVPKAAITHDIPNKNTKVKSLGHHKGEFLGQSEGVIEPNKELSEVKNVLEKLKNSERRLLQDKEGLSNQLRVQTEVNRELKKLLVASVGDDLQYHFERLAREKNQLILENEALGRNTAQLSEQLERMSIQCDVWRSKFLASRVMADELTNSRAALQRQNRDAHGAIQDLLSEREQFRQEMIATQKLLEELLVSLQWGREQTYSPSVQPHSTAELALTNHKLAKAVNSHLLGNVGINNQKKIPSTVEFCSTPAEKMAETVLRILDPVTCKESSPDNPFFESSPTTLLATKKNIGRFHPYTRYENITFNCCNHCRGELIAL
B3: Cyclin-D1-binding protein 1 (Homo sapiens), O95273 (parent)
chain: MASATAPAAAVPTLASPLEQLRHLAEELRLLLPRVRVGEAQETTEEFNREMFWRRLNEAAVTVSREATTLTIVFSQLPLPSPQETQKFCEQVHAAIKAFIAVYYLLPKDQGITLRKLVRGATLDIVDGMAQLMEVLSVTPTQSPENNDLISYNSVWVACQQMPQIPRDNKAAALLMLTKNVDFVKDAHEEMEQAVEECDPYSGLLNDTEENNSDNHNHEDDVLGFPSNQDLYWSEDDQELIIPCLALVRASKACLKKIRMLVAENGKKDQVAQLDDIVDISDEISPSVDDLALSIYPPMCHLTVRINSAKLVSVLKKALEITKASHVTPQPEDSWIPLLINAIDHCMNRIKELTQSELEL
B4: Translation initiation factor eIF2B subunit beta (Homo sapiens), P49770 (parent)
chain: MPGSAAKGSELSERIESFVETLKRGGGPRSSEEMARETLGLLRQIITDHRWSNAGELMELIRREGRRMTAAQPSETTVGNMVRRVLKIIREEYGRLHGRSDESDQQESLHKLLTSGGLNEDFSFHYAQLQSNIIEAINELLVELEGTMENIAAQALEHIHSNEVIMTIGFSRTVEAFLKEAARKRKFHVIVAECAPFCQGHEMAVNLSKAGIETTVMTDAAIFAVMSRVNKVIIGTKTILANGALRAVTGTHTLALAAKHHSTPLIVCAPMFKLSPQFPNEEDSFHKFVAPEEVLPFTEGDILEKVSVHCPVFDYVPPELITLFISNIGGNAPSYIYRLMSELYHPDDHVL

Variants of B1 are the subject of the first experiment. To be noted: with chm1b_human CHMP1B.
Regarding Q155H, the “effect of a mutation on the interaction” value is “with no effect”.

The variants in another experiment derive from B2. The settings on record: with aakb2_human PRKAB2, O43741.
For Q40R, the “effect of a mutation on the interaction” value was “with no effect”.

Turning to H45R, the “effect of a mutation on the interaction” value is listed as “with no effect”.

A further experiment covers variants of B2. To be noted: with rab2a_human RAB2A.
Consider Q40R, for which the “effect of a mutation on the interaction” value is listed as “with no effect”.

On to H45R, for which the “effect of a mutation on the interaction” value is “with no effect”.

In another experiment the parent is B2. The settings on record: with zbt24_human ZBTB24, O43167.
Regarding Q40R, the “effect of a mutation on the interaction” value is listed as “with no effect”.

As to H45R, the “effect of a mutation on the interaction” value is reported as “with no effect”.

Variants of B3 are the subject of another experiment. The settings on record: with ezh1_human EZH1, Q92800.
As for I277T, the “effect of a mutation on the interaction” value is listed as “disrupting interaction strength”.

The variants in another experiment derive from B3. The settings on record: with pex39_human PEX39, Q5I0X4.
Take I277T: the “effect of a mutation on the interaction” value was “disrupting interaction strength”.

In the next experiment the parent is B3. To be noted: with evg1_human C22orf23, Q9BZE7.
As for I277T, the “effect of a mutation on the interaction” value is recorded as “disrupting interaction strength”.

Variants of B3 are the subject of another experiment. To be noted: with map7_human MAP7, Q14244.
With I277T, the “effect of a mutation on the interaction” value is recorded as “disrupting interaction strength”.

In another experiment the parent is B3. The settings on record: with myp2_human PMP2, P02689.
On to I277T, for which the “effect of a mutation on the interaction” value is reported as “disrupting interaction strength”.

A further experiment covers variants of B3. The settings on record: with rl39l_human RPL39L.
As to I277T, the “effect of a mutation on the interaction” value is “disrupting interaction strength”.

The variants in another experiment derive from B3. To be noted: with zn707_human ZNF707, Q96C28.
Consider I277T, for which the “effect of a mutation on the interaction” value is “disrupting interaction strength”.

In a further experiment the parent is B3. The settings on record: with bmp7_human BMP7, P18075.
Take I277T: the “effect of a mutation on the interaction” value was “disrupting interaction strength”.

Variants of B3 are the subject of another experiment. To be noted: with zn136_human ZNF136, P52737.
In the case of I277T, the “effect of a mutation on the interaction” value is given as “disrupting interaction strength”.

The variants in a further experiment derive from B3. The settings on record: with cul5_human CUL5, Q93034.
Take I277T: the “effect of a mutation on the interaction” value is given as “disrupting interaction strength”.

Variants of B3 are the subject of another experiment. To be noted: with zn555_human ZNF555, Q8NEP9.
With I277T, the “effect of a mutation on the interaction” value is “disrupting interaction strength”.

In the next experiment the parent is B3. To be noted: with ilf2_human ILF2, Q12905.
For I277T, the “effect of a mutation on the interaction” value is recorded as “disrupting interaction strength”.

The variants in a further experiment derive from B3. The settings on record: with tnnt1_human TNNT1, P13805.
For the variant I277T, the “effect of a mutation on the interaction” value is reported as “disrupting interaction strength”.

The variants in the next experiment derive from B3. To be noted: with nano2_human NANOS2, P60321.
Regarding I277T, the “effect of a mutation on the interaction” value is listed as “disrupting interaction strength”.

Another experiment covers variants of B3. To be noted: with tha10_human THAP10, Q9P2Z0.
As to I277T, the “effect of a mutation on the interaction” value was “disrupting interaction strength”.

Another experiment covers variants of B3. The settings on record: with tppc5_human TRAPPC5, Q8IUR0.
Turning to I277T, the “effect of a mutation on the interaction” value was “disrupting interaction strength”.

The variants in the next experiment derive from B4. To be noted: with ei2bd_human EIF2B4, Q9UI10.
In the case of A127V, the “effect of a mutation on the interaction” value is reported as “with no effect”.
